# In patent publication US20100047264A1 (published 2010):
# Where no end group is shown, it is not given here.
# T1: free (non-NLP) HCV core protein (1-170) (hepatitis C virus (plasmid pCV-H77c), UniProt P27958 1-170)
# T1 construct: range 1-170; also called HCV-C170; free HCV-C170; not shown: His6-tag fused at the C-terminus
# T1 sequence: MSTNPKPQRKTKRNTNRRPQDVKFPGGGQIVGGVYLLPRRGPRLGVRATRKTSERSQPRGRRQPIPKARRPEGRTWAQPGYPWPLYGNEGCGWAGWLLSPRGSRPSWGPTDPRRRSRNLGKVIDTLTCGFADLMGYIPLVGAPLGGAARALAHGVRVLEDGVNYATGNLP
# T2: OmpF porin purified from Salmonella typhi (Salmonella typhi, UniProt Q56113 23-363)
# T2 construct: also called S. typhi OmpF; OmpF antigen
# T2 sequence: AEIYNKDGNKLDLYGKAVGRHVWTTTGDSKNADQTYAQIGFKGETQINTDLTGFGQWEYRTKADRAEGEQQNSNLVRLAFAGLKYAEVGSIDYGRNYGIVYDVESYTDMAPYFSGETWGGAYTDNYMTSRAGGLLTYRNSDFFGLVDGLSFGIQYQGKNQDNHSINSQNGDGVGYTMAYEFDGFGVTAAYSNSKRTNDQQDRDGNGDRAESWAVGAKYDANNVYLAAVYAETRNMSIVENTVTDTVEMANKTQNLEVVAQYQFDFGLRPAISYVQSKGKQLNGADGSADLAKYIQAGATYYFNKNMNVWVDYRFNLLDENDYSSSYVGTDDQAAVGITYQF
# T3: HCV core protein (1-170) NLPs (hepatitis C virus (plasmid pCV-H77c), UniProt P27958 1-170)
# T3 construct: range 1-170; also called HCV-C170 NLP; not shown: His6-tag fused at the C-terminus
# T3 sequence: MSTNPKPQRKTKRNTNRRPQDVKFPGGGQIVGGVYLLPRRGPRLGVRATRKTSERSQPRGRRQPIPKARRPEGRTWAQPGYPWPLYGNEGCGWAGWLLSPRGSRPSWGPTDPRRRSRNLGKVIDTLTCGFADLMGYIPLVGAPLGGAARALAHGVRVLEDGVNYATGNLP
# Tests used:
# [1] = target: T1, free (non-NLP) HCV core protein (1-170); test: phage display panning (Ph.D.-7 library) on HCV-C170 adsorbed to a plate, 4 rounds, elution with target protein
# [2] = target: T2, OmpF porin purified from Salmonella …; test: phage display panning (Ph.D-7 library) on purified OmpF coated on an ELISA plate, 3 rounds
# [3] = target: T3, HCV core protein (1-170) NLPs; test: ELISA-type binding assay, HCV-C170 NLP coated at 1 µg/ml, 2-fold serial dilution of PapMVCP-STASYTR, detected with rabbit anti-PapMV CP polyclonal
# [4] = target: T1, free (non-NLP) HCV core protein (1-170); test: ELISA-type binding assay, free (non-NLP) HCV-C170 coated at 1 µg/ml, 2-fold serial dilution of PapMVCP-STASYTR, detected with rabbit anti-PapMV CP polyclonal
Binder,binding result [1],also measured
GPSTPIR (not fully specified) [HCV core affinity peptide GPSTPIR],binds,–
NASSLRS (not fully specified) [HCV core affinity peptide NASSLRS],binds,–
STASYTR (not fully specified) [HCV core affinity peptide STASYTR],binds,–
FHENWPS (not fully specified) [OmpF affinity peptide FHENWPS],–,binding result [2]: binds
HSPKNLH (not fully specified) [HCV core affinity peptide HSPKNLH],binds,–
"PapMVCP-STASYTR (VLPs of PapMV coat protein fused to the HCV core affinity peptide STASYTR and a histidine tag) (designed binder, also called PapSTA; PapMV-STASYTR) MASTPNIAFPAITQEQMSSIKVDPTSNLLPSQEQLKSVSTLMVAAKVPAASVTTVALELVNFCYDNGSSAYTTVTGPSSIPEISLAQLASIVKASGTSLRKFCRYFAPIIWNLRTDKMAPANWEASGYKPSAKFAAFDFFDGVENPAAMQPPSGLTRSPTQEERIANATNKQVHLFQAAAQDNNFASNSAFITKGQISGSTPTIQFLPPPETSSTASYTRTRHHHHHH",–,binding result [3]: binds; binding result [4]: binds
FHEFWPT (not fully specified) [OmpF affinity peptide FHEFWPT],–,binding result [2]: binds
GVQIMGR (not fully specified) [HCV core affinity peptide GVQIMGR],binds,–
NTPQGMT (not fully specified) [HCV core affinity peptide NTPQGMT],binds,–
SIQYTGV (not fully specified) [HCV core affinity peptide SIQYTGV],binds,–
